pKd: −log10 of the molar value.

Test [1] has as its target His6-tagged full-length TF (E. coli) (UniProt P0A850). Description: SEC-MALS; preliminary data on His6-tagged full-length TF; elution concentration 10 µM; conservative estimate of KD.
Test [2] has as its target RBD–SBD (1–148/247–432) (E. coli) (UniProt P0A850). Briefly: SEC-MALS; as a2 but 250 mM KCl; dimer to monomers. (Size exclusion chromatography separates by hydrodynamic size, large species first.)
Test [3] has the same target. Description: SEC-MALS; as a2 but 500 mM KCl; dimer to monomers.
For test [4] the target is unchanged. Briefly: SEC-MALS; sample buffer (20 mM K-phosphate pH 6.5, 100 mM KCl, 0.5 mM EDTA); 6 °C for the individual domains; concentration series fitted to a fast monomer–dimer equilibrium; dimer to monomers.
The target is the same in test [5]. Description: AUC; sedimentation equilibrium, 6 °C, 100 mM KCl (sample buffer: 20 mM K-phosphate pH 6.5, 100 mM KCl, 0.5 mM EDTA); 12 μM TF, 48 and 135 μM RBD–SBD; global fit to a monomer–dimer model; dimer to monomers.

Take “His6-tagged full-length TF (from UniProt P0A850 1-432) (natural protein)”: in test [1], the negative logarithm of the Kd (pKd) (in general, the Kd on a negative log10 scale, so that one unit is a factor of ten) is over 7.00 and the stoichiometry N (as a rule, a count of units in the complex or per binding partner) was 2.
With “RBD–SBD (1–148/247–432) (from UniProt P0A850 1-148; P0A850 247-432) (domain or fragment)”, the pKd in test [2] was under 3.30; in test [3], under 3.30; in test [4], 4.14; in test [5], 4.27. Also, in test [4], the stoichiometry N came to 2.

The values are drawn from paper PMC5722895.
